From patent US20040191821 come the findings set out here.

For this series, the target named is MuA transposase (residues 77-663) (Bacteriophage Mu) (UniProt P07636). Particulars: 91/92 nt products; mismatch at center of 5 bp target; 10 mM MgCl2, 30 C; scale: % of strand transfer products at mismatch.
MuA transposase (residues 77-663) (Bacteriophage Mu), sequence (P07636 77-663): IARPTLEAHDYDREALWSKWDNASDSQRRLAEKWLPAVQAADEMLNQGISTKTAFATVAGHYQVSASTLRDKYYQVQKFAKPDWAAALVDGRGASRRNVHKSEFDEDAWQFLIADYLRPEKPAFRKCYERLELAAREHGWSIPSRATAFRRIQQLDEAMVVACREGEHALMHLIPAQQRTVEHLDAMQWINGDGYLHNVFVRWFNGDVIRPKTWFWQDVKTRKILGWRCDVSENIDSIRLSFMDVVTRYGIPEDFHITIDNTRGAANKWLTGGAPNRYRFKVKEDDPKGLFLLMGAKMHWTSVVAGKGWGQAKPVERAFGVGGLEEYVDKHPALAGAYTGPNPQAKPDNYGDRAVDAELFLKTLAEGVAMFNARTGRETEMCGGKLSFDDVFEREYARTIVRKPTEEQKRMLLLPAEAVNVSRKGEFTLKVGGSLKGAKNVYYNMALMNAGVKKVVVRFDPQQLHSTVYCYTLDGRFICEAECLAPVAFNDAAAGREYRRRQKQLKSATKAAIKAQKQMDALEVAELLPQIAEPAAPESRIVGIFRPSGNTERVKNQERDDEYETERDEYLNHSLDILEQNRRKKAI

Consider “CGTTCATTAGCACAATCACAGAAGACTAGAATACAACCGCACATAAGATCAGAAGTTAACTAGCACTAGTACTTGC (double strand) [single mismatch target 76 bp]”, for which the activity is 90.
